From patent publication US20170267738A1 (published 2017)
Each block holds one binder with its values, some of them ahead of it.

Assays:
[1] = molecular target: T1, MAGEA4 (MAG-003 A9, alanine at position 9; same residues as SEQ ID NO: 3) peptide on HLA-A*02:01 (human); assay: cytokine release
T1 peptide: KVLEHVVRA

[2] = molecular target: T2, ANO5 (peptide ANO5-001) peptide on HLA-A*02:01 (human); assay: cytokine release
T2 peptide: IVMEHVVFL

[3] = molecular target: T3, RABGAP1L (peptide RABGAP1L-001) peptide on HLA-A*02:01 (human); assay: cytokine release
T3 peptide: FLLETVVRV

[4] = molecular target: T4, MAGEA4 (MAG-003 A6, alanine at position 6) peptide on HLA-A*02:01 (human); assay: cytokine release
T4 peptide: KVLEHAVRV

[5] = molecular target: T5, CNOT1 (peptide CNOT1-003) peptide on HLA-A*02:01 (human); assay: cytokine release
T5 peptide: KVLGIVVGV

[6] = molecular target: T6, HERC4 (peptide HERC4-001) peptide on HLA-A*02:01 (human); assay: cytokine release
T6 peptide: KVLEILHRV

[7] = molecular target: T7, SYNE3 (peptide SYNE3-001) peptide on HLA-A*02:01 (human); assay: cytokine release
T7 peptide: KLLDLQVRV

[8] = molecular target: T8, AXIN1 (peptide AXIN1-001) peptide on HLA-A*02:01 (human); assay: cytokine release
T8 peptide: ILDEHVQRV

[9] = molecular target: T9, HEATR5A (peptide HEATR5A-001) peptide on HLA-A*02:01 (human); assay: cytokine release
T9 peptide: KVLETLVTV

[10] = molecular target: T10, PSME2 (peptide PSME2-001) peptide on HLA-A*02:01 (human); assay: cytokine release
T10 peptide: KVLERVNAV

[11] = molecular target: T11, MIA3 (peptide MIA3-001) peptide on HLA-A*02:01 (human); assay: cytokine release
T11 peptide: KVLDKVFRA

[12] = molecular target: T12, MAGEA4 (MAG-003 A7, alanine at position 7) peptide on HLA-A*02:01 (human); assay: cytokine release
T12 peptide: KVLEHVARV

[13] = molecular target: T13, TPX2 (peptide TPX2-001) peptide on HLA-A*02:01 (human); assay: cytokine release
T13 peptide: KILEDVVGV

[14] = molecular target: T14, MAGEA4 (peptide MAG-003) peptide on HLA-A*02:01 (human); assay: multimer staining
T14 peptide: KVLEHVVRV

[15] = molecular target: T15, MAGEA4 (MAG-003 A2, alanine at position 2; same residues as SEQ ID NO: 9) peptide on HLA-A*02:01 (human); assay: cytokine release
T15 peptide: KALEHVVRV

binding result [1]: recognises | binding result [2]: no recognition | binding result [3]: no recognition | binding result [4]: recognises | binding result [5]: no recognition | binding result [6]: no recognition | binding result [7]: no recognition | binding result [8]: no recognition | binding result [9]: no recognition | binding result [10]: no recognition | binding result [11]: no recognition | binding result [12]: recognises | binding result [13]: no recognition | binding result [14]: recognises
B1: R10P2G12 (TCR, V domains shown)
Valpha: AQKVTQAQTEISVVEKEDVTLDCVYETRDTTYYLFWYKQPPSGELVFLIRRNSFDEQNEISGRYSWNFQKSTSSFNFTITASQVVDSAVYFCALSEGNSGNTPLVFGKGTRLSVIA
Vbeta: DVKVTQSSRYLVKRTGEKVFLECVQDMDHENMFWYRQDPGLGLRLIYFSYDVKMKEKGDIPEGYSVSREKKERFSLILESASTNQTSMYLCASSLSSGSHQETQYFGPGTRLLVL

binding result [1]: recognises | binding result [2]: no recognition | binding result [3]: no recognition | binding result [4]: recognises | binding result [5]: no recognition | binding result [6]: no recognition | binding result [7]: no recognition | binding result [8]: no recognition | binding result [9]: no recognition | binding result [10]: no recognition | binding result [11]: no recognition | binding result [15]: recognises | binding result [13]: no recognition | binding result [14]: recognises
B2: R20P1H7 (TCR, V domains shown)
Valpha: EDQVTQSPEALRLQEGESSSLNCSYTVSGLRGLFWYRQDPGKGPEFLFTLYSAGEEKEKERLKATLTKKESFLHITAPKPEDSATYLCAVQGENSGYSTLTFGKGTMLLVSP
Vbeta: EAQVTQNPRYLITVTGKKLTVTCSQNMNHEYMSWYRQDPGLGLRQIYYSMNVEVTDKGDVPEGYKVSRKEKRNFPLILESPSPNQTSLYFCASSLGPGLAAYNEQFFGPGTRLTVL
